Test results from US10100120B2, “Antibody which specifically binds to human CRTH2” (KYOWA HAKKO KIRIN CO., LTD, priority 2015, dated 2018).

How the values were obtained:
[1] = biological target: T1, mutated human CRTH2 with amino acid substitution (Homo sapiens, UniProt Q9Y5Y4, D194A); test: Epitope analysis using CHO-S cells which express mutated human CRTH2 with amino acid substitution; format: binding; conditions: mutant D194A; antibody 10 μg/mL; relative to wild-type = 100%
T1 construct: inserting genes encoding various mutants with amino acid substitution obtained by deleting termination codons; expressed in transfected cells; host or cells: CHO-S cells (Lifetechnologies), transient (phmAG1-MNLinker vector)
T1 sequence (Q9Y5Y4 1-395 D194A): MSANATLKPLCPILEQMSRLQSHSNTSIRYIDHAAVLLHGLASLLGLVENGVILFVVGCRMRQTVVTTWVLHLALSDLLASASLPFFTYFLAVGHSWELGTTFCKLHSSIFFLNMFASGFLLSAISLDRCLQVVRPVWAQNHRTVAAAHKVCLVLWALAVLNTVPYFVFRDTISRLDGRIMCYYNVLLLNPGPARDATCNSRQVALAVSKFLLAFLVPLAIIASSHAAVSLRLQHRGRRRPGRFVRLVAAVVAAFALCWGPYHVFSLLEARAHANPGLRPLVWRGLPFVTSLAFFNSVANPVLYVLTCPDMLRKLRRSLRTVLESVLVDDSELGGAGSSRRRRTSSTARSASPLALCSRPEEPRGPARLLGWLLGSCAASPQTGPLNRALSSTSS
Procedure, shortened: (§1)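 CHO-S cells transiently expressing alanine-substituted human CRTH2 extracellular mutants, C-terminally Azami-Green tagged, 24 h post-transfection. Antibodies at 10 μg/mL, 4 °C 1 h, then Alexa647 anti-IgG secondary 4 °C 1 h; flow cytometry on Azami-Green-positive cells. Reactivity = Alexa647 intensity divided by Azami-Green intensity.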

[2] = biological target: T2, mutated human CRTH2 with amino acid substitution (Homo sapiens, UniProt Q9Y5Y4, G192A); test: as above; format: binding; conditions: mutant G192A; antibody 10 μg/mL; relative to wild-type = 100%
T2 construct: inserting genes encoding various mutants with amino acid substitution obtained by deleting termination codons; expressed in transfected cells; host or cells: CHO-S cells (Lifetechnologies), transient (phmAG1-MNLinker vector)
T2 sequence (Q9Y5Y4 1-395 G192A): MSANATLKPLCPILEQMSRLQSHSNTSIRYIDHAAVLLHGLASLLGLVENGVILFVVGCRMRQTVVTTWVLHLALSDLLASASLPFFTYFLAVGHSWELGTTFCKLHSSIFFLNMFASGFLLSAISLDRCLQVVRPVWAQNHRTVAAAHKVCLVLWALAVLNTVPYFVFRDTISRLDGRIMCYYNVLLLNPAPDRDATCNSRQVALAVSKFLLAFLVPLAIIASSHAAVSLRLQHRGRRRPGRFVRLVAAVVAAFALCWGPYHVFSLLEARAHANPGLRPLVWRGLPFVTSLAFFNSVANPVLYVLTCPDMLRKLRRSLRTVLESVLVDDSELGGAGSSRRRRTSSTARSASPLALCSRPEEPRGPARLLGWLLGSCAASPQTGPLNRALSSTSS
Procedure, shortened: as §1

reactivity against cells expressing mutated human CRTH2 [1]: lost
reactivity against cells expressing mutated human CRTH2 [2]: lost
B1: LV0HV1: humanized Lym2 antibody, VL LV0 (SEQ ID NO: 33), VH HV1 (SEQ ID NO: 51) (antibody, V domains shown)
VH: EVQLVESGGGVVQPGRSLRLSCAASGFTFSNYYMAWVRQAPGKGLEWVATISYDGSSTYYRDSVKGRFTISRDNAKNSLYLQMNSLRAEDTATYYCARHRGYYYSGAGYFDYWGQGTMVTVSS
VL: DIVMTQTPLSLPVTPGESASISCRSSQSLEYSDGYTYLEWYLQKPGQSPQVLIYGVSNRFSGVPDRFSGSGSGTDFTLKISRVEAEDVGVYYCFQATHDPLTFGQGTKLEIK
